{"source": "patent US20120276102A1", "about": "(Pfizer, published 2012)", "binders": {"B1": {"name": "AbO (antibody, human IgG1, V domains shown)", "VH": "QVQLQESGPGLVKPSETLSLTCAVSGYSISSGYYWGWIRQPPGKGLEWIGSISHTGNTYYNPPLKSRVTISVDTSKNQFSLKLSSVTAADTAVYYCARGGGISRPEYWGQGTLVTVSS", "VL": "SSELTQDPAVSVALGQTVRITCQGDSLRTYYASWYQQKPGQAPVLVIYGKHKRPSGIPDRFSGSSSGNTASLTITGAQAEDEADYYCVTRSAKGNPHVLFGGGTQLTVL", "notes": "CDR3 graft, residue limits derived as for m29; also called VHP/VL16; VHPTM/VL16"}}, "key": {"[1]": {"target": "T1, human IL-21R expressed on cells (human, UniProt Q9HBE5 20-538)", "T1 construct": "also called human IL-21R-BaF3; human IL-21R-TF1", "T1 sequence (Q9HBE5 20-538 limits assumed)": "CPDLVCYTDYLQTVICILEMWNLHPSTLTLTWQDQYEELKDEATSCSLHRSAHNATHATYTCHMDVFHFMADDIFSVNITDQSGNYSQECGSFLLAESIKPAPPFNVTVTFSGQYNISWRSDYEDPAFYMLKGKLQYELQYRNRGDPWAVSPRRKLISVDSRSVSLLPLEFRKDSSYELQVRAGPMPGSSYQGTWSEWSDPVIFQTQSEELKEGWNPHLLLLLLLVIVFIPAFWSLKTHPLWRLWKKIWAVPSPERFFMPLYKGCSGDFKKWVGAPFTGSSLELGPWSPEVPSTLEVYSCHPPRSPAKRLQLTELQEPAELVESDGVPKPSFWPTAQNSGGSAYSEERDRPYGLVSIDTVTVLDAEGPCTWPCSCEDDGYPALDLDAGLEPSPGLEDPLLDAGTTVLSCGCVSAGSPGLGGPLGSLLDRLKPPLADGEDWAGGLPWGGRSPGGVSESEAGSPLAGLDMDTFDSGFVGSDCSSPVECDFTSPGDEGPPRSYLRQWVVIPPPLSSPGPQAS", "test": "cell ELISA, CHO cells"}, "[2]": {"target": "T2, rat IL-21R expressed on cells (rat)", "T2 construct": "whole, on cells", "test": "cell ELISA, CHO cells"}, "[3]": {"target": "T3, cynomolgus monkey IL-21R expressed on cells (cynomolgus monkey, UniProt G7Q0S8 41-559)", "T3 construct": "whole, on cells", "test": "cell ELISA, CHO cells"}, "[4]": {"target": "T4, human gamma (γ) common chain expressed on CHO cells (human, UniProt P31785 23-369)", "T4 construct": "whole, on cells; Control protein; also called human IL-2R-γ common subunit; human γ-common", "T4 sequence (looked up)": "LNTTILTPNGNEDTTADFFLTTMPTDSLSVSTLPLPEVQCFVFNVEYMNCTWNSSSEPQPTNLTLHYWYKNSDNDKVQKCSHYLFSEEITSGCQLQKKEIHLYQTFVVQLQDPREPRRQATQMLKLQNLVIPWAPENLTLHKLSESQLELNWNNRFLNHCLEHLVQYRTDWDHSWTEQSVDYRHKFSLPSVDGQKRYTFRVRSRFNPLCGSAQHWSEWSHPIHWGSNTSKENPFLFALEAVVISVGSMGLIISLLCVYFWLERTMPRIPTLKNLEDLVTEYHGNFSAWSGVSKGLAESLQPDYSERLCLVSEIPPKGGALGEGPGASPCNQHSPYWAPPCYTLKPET", "test": "cell ELISA, CHO cells"}, "[5]": {"target": "T1, human IL-21R expressed on cells", "test": "cell-based or functional assay"}, "[6]": {"target": "T5, murine IL-21R expressed on cells (murine, UniProt Q9JHX3 20-529)", "T5 sequence (Q9JHX3 20-529 limits assumed)": "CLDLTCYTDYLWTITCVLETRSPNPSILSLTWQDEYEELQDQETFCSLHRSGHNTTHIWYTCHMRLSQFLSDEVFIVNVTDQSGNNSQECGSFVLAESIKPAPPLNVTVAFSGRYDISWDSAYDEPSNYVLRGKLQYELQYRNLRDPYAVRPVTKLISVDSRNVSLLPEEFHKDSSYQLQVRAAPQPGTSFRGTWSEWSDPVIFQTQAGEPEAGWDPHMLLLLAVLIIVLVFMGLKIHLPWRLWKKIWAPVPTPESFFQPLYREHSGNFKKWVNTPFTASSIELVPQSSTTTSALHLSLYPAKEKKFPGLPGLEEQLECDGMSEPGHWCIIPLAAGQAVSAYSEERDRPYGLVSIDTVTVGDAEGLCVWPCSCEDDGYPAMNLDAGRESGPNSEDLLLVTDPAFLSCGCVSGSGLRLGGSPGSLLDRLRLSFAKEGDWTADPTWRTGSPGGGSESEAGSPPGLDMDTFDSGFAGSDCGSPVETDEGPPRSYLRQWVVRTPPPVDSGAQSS", "test": "cell-based or functional assay"}, "[7]": {"target": "T1, human IL-21R expressed on cells", "test": "cell-based or functional assay", "remark": "listed apart in the source"}, "[8]": {"target": "T5, murine IL-21R expressed on cells", "test": "cell-based or functional assay", "remark": "listed apart in the source"}, "human IL-2Rβ": {"target": "T6, human IL-2Rβ (human, UniProt P14784 27-239)", "T6 sequence (looked up)": "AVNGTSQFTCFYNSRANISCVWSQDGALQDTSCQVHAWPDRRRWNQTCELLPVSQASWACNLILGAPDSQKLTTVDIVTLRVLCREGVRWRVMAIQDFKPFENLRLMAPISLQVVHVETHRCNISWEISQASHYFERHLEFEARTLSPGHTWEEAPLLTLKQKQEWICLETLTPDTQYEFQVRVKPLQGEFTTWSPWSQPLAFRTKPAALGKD", "test": "BIACORE: antibody captured on anti-human IgG; 50 nM analyte injected", "method": "(§1) The specificity of binding of a subset of transiently expressed anti-IL-21R binding proteins (here antibodies) was tested on a BIACORE™ 2000 surface plasmon resonance instrument. Anti-human-IgG, anti-murine immunoglobulin antibodies, and murine IL-21R-H/F were immobilized onto a research-grade carboxymethyl-dextran chip (CM5) using standard amine coupling. The sensor chip surface was activated with EDC/NHS for 7 min at a flow rate of 20 μl/min. The first flow cell was used as reference surface to correct for bulk refractive index, matrix effects, and nonspecific binding. […] Remaining activated groups were blocked with 1.0 M ethanolamine (pH 8.0). The molecular weights of the anti-human IgG and the anti-murine IgG were both 150 kD, and the molecular weight of the IL-21R monomer was 27 kD.\n(§2) Conditioned media containing anti-IL-21R antibodies and antibody controls (murine anti-human IL-2Rβ and murine anti-human IL-4R(R&D Systems, Minneapolis, Minn.); human anti-human IL-13 (Wyeth, Cambridge, Mass.)) were diluted in HBS/EP buffer supplemented with 0.2% bovine serum and injected onto all four flow cells of the BIACORE™ chip, capturing 500-700 (RU) of antibody on the species-appropriate capture antibody. Following a 5 sec washing period, 50 nM solutions of a positive control protein (murine IL-21R-H/F), two human proteins related to IL-21R (human IL-2Rβ and human sIL-4R(R&D Systems)), or an unrelated His/FLAG-tagged protein (human IL-13-H/F) were injected over the captured antibodies on the chip. The association and dissociation phases were monitored for 120 and 180 sec, respectively, followed by two 5 μl injections of glycine (pH 1.5) to regenerate a fully active capturing surface. All binding experiments were done at 25° C. in HBS/EP buffer. Blank and buffer effects were subtracted for each sensorgram using double referencing."}, "human soluble IL-4R": {"target": "T7, human soluble IL-4R (human, UniProt P24394 26-232, limits assumed)", "T7 construct": "also called human sIL-4R", "test": "BIACORE: antibody captured on anti-human IgG; 50 nM analyte injected", "method": "as §1, §2"}, "human IL-13-His/FLAG": {"target": "T8, human IL-13-His/FLAG (human, UniProt P35225 35-146, limits assumed)", "T8 construct": "Unrelated His/FLAG-tagged control; also called human IL-13-H/F", "T8 sequence (P35225 35-146 limits assumed)": "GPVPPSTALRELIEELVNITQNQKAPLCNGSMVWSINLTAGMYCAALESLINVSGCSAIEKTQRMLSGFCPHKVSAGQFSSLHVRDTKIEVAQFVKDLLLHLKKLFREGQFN", "test": "BIACORE: antibody captured on anti-human IgG; 50 nM analyte injected", "method": "as §1, §2"}, "[9]": {"target": "T4, human gamma (γ) common chain expressed …", "test": "cell-based ELISA on CHO cells transiently expressing human gamma common chain; HRP anti-human IgG, A450", "summary_of_the_method": "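Binding read by TMB colour after HRP anti-human IgG (1 hr, RT), stopped with H₂SO₄. Before that, IgG-containing conditioned media, serially diluted in 5% milk/PBS/CaMg, were applied 1 hr at RT to CHO-PA-Dukx cells transfected 48 hr earlier.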"}}, "data": [{"binder": "B1", "values": [{"measurement": "A450 (13 nM Ab)", "setting": "[1]", "value": 1.11, "unit": "A450"}, {"measurement": "A450 (13 nM Ab)", "setting": "[2]", "value": 1.1, "unit": "A450"}, {"measurement": "A450 (13 nM Ab)", "setting": "[3]", "value": 1.36, "unit": "A450"}, {"measurement": "A450 (13 nM Ab)", "setting": "[4]", "value": 0.108, "unit": "A450"}, {"measurement": "Human IL-21R-BaF3 Proliferation IC50", "setting": "[5]", "value": 0.52, "unit": "nM"}, {"measurement": "Human IL-21R-TF1 Proliferation IC50", "setting": "[5]", "value": 2.91, "unit": "nM"}, {"measurement": "Murine IL-21R-BaF3 Proliferation IC50", "setting": "[6]", "value": 0.065, "unit": "nM"}, {"measurement": "Neutralization of human primary T cell Proliferation IC50", "setting": "[7]", "value": 0.06, "unit": "nM"}, {"measurement": "Neutralization of murine primary T cell Proliferation IC50", "setting": "[8]", "value": 4.92, "unit": "nM"}, {"measurement": "binding result", "setting": "human IL-2Rβ", "value": "no binding (tested: 50 nM)"}, {"measurement": "binding result", "setting": "human soluble IL-4R", "value": "no binding (tested: 50 nM)"}, {"measurement": "binding result", "setting": "human IL-13-His/FLAG", "value": "no binding (tested: 50 nM)"}, {"measurement": "binding result", "setting": "[9]", "value": "no binding (tested: 40 nM)"}]}]}
